Laboratory results published in article PMC9825591.

Key:
[1] = target: EPYC1-GFP (Chlamydomonas reinhardtii); test: fluorescence correlation spectroscopy (FCS); dilute phase of a phase-separated mixture, alongside condensates: EPYC1-GFP fixed at 20 nM, unlabeled EPYC1 1 to 4 μM, Rubisco 0.05 to 2 μM; laser aimed at a region away from condensates
[2] = target: EPYC1-GFP (Chlamydomonas reinhardtii); test: fluorescence correlation spectroscopy (FCS); 10 nM EPYC1-GFP with varying concentrations of unlabeled Rubisco in solution, one-phase region (no condensates); 20 mM Tris-HCl, 50 mM NaCl, pH 8.0; PEI-g-PEG coated coverslip; EPYC1-GFP diffusion coefficient against Rubisco concentration fitted with a quadratic binding equation; the authors consider the Kd an upper bound

Rubisco holoenzymes per EPYC1-Rubisco complex [1]: 1
Kd [2]: 29 nM
Rubisco holoenzymes per EPYC1-Rubisco complex [2]: 1
Substance: Ribulose-1,5-bisphosphate carboxylase/oxygenase (Rubisco) holoenzyme, wildtype (from UniProt P00877 3-475; P00873 46-185) (complex)
